From US20060035245, “Modulators of enzymatic nucleic acid elements mobilization” (published 2006)

Molecular target: Tn5 transposase hyperactive mutant (EK54, MA56, LP372) (UniProt Q46731 Q46731:1-476, E54K,M56A,L372P)
Test: EMSA; complex assembly, inhibited by small molecules with IC50 3.5-46 uM
Settings: chain copies: 2; label: fluorescein 5' end of transferred strand
Description: For FP analysis, 60 μL reactions were analyzed using the FP protocol on a Wallac Victor V plate reader and a 7% native polyacrylamide gel was used in gel shift assays. For compound screening and subsequent analysis, 1 μL of either DMSO or test compound (final concentration 80 μM) was added to the synapsis reactions. Compound screening was carried out using a Beckman Coulter Biomek FX in a 384 well format. […] IC₅₀ values were obtained by fitting inhibitor titration data (0, 0.01, 0.05, 0.1, 0.5, 2.5, 10, 20, 35, 50, 100, 200, 400, 800 μM) to an exponential decay.

B1: 60 bp Tn5 substrate for inhibitor verification (dsDNA)
DNA 1: GGCCACGACACGCTCCCGCGCTGTCTCTTATACACATCTTGAGTGAGTGAGCATGCATGT
DNA 2: ACATGCATGCTCACTCACTCAAGATGTGTATAAGAGACAGCGCGGGAGCGTGTCGTGGCC
- binding result: binds
